# Results from PMC9601805, “Characterization of the Escherichia coli pyridoxal 5′‐phosphate homeostasis protein (YggS): Role of lysine residues in PLP binding and protein stability” (Protein Science : A Publication of the Protein Society, 2022).
# Values joined by “and” are separate entries in the source; they are usually repeats but may differ in a detail not shown here. Identical values can stand only once. Like-named read-outs stand apart in the source and are kept apart here.
# T1: E. coli serine hydroxymethyltransferase, apo-form (E. coli, UniProt P0A825 1-417)
# T1 construct: serine hydroxymethyltransferase of E. coli, encoded by the glyA gene; without PLP (apo-form); also called apo-SHMT; apoSHMT; source: apo-form prepared with L-cysteine as for apo-YggS
# T1 sequence (looked up): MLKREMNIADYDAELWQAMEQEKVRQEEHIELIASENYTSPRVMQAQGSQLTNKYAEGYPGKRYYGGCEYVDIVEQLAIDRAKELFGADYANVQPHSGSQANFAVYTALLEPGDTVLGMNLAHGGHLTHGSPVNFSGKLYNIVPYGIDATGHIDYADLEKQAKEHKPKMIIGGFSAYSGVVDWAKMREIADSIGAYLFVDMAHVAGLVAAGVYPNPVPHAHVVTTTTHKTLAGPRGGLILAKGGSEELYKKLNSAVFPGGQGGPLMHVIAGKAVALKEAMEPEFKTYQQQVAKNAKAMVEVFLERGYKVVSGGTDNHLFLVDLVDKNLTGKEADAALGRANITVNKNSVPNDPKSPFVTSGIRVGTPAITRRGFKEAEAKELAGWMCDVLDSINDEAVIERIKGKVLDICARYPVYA
# Legend:
# apo‐YggS [1] = biological target: T2, apo‐YggS (Escherichia coli, UniProt P67080); assay: biochemical; assay type: binding; settings: for Kd: dissociation constant (K D), ligand binding to WT apo-YggS, fluorescence change, 50 mM NaHEPES pH 7.6
# T2 construct: made in house; host or cells: E. coli HMS174(DE3)
# Description: (§1) Equilibrium binding analyses were carried out by measuring the decrease of protein intrinsic fluorescence observed upon the addition of increasing PLP concentrations to a fixed concentration of apo‐YggS (Figure 1b).
# Dissociation constants were calculated from saturation curves obtained measuring the protein fluorescence emission intensity as a function of increasing PLP concentration. […] Fluorescence emission spectra were recorded from 310 to 450 nm upon excitation at 280 nm. Excitation and emission slits were set at 3 and 5 nm, respectively.
# apo‐YggS [2] = biological target: T2, apo‐YggS; assay: biochemical; assay type: binding
# Description: The thermal stability of holo‐ and apo‐YggS forms was analyzed by differential scanning fluorimetry (DSF).
# Differential scanning fluorimetry (DSF) assays were performed on a Real Time PCR Instrument (CFX Connect Real Time PCR system, Bio‐Rad, Hercules, CA). In a typical experiment, 2 μM WT and variant apo‐YggS forms in 50 mM NaHEPES, pH 7.5, 50 mM NaCl, and Sypro Orange (5x, Thermo Scientific) were mixed with various ligands (total volume of 25 μl) in a 96‐well PCR plate. […] All samples were run in triplicate. Denaturation profiles were analyzed as described in Nardella et al.[40]
# apo‐YggS [3] = biological target: T2, apo‐YggS; assay: Kinetics of PLP binding to apo-YggS, absorbance of protonated Schiff base; settings: manual mixing time
# Description: as §1
# (§2) We set up a novel in vitro discontinuous assay in which PLP transfer from holo‐YggS to the apo‐form of eSHMT could be followed (see Section 4 for details). In this assay, the increase in SHMT activity is measured as PLP dissociates from holo‐YggS and binds to apo‐SHMT, forming the catalytically active holo‐SHMT. […] The binding kinetics of free PLP to either apo‐YggS or apo‐SHMT was measured by manually mixing 20 μM free PLP with 20 μM of protein, observing the formation of the internal aldimine at 420 nm.
# eSHMT = eSHMT (Escherichia coli, UniProt P0A825); assay: PLP binding to eSHMT; settings: read-out: K D for PLP
# [4] = biological target: T1, E. coli serine …; assay: SPR; SensiQ Pioneer, COOH5 chip; apo-SHMT immobilised via amine coupling (100 RU); holo-YggS injected at 0.24-180 μM in PBS with 0.005% surfactant P20, 30 μl/min; done twice; Scatchard analysis; settings: both partners purified
# [5] = PLP binding equilibrium of YggS WT and variant forms, intrinsic fluorescence change; settings: E. coli YggS form 0.1 μM, 50 mM NaHEPES pH 7.6, 25°C, excitation 280 nm; mean ± SEM; read-out: K D (nM) of the PLP binding equilibrium
# Description: Analyses took advantage of YggS intrinsic fluorescence decrease observed upon binding of PLP. Dissociation constants were calculated from saturation curves obtained measuring the protein fluorescence emission intensity as a function of increasing PLP concentration. Fluorescence emission measurements were carried out at 25°C, in 50 mM NaHEPES buffer at pH 7.6 with a FluoroMax‐3 Jobin Yvon Horiba spectrofluorometer, using a 1‐cm path length quartz cuvette. All analyzed YggS forms were used at a final subunit concentration of 0.1 μM. Fluorescence emission spectra were recorded from 310 to 450 nm upon excitation at 280 nm. Excitation and emission slits were set at 3 and 5 nm, respectively. Emission fluorescence values between 330 and 340 nm were averaged and analyzed using the following quadratic equation to obtain K D value: (1) Frel=Finf−F0×PLP+[YggS]+KD−PLP+[YggS]+KD^2−4[YggS]PLP/2/[YggS]+F0
# E. coli ΔyggS = assay: 4dPN sensitivity assay and complementation by YggS variants in trans; assay type: cell-based, Escherichia coli; settings: expression in trans, M9 0.4% glucose, 1 μM PN, 20 μl of 25 mM 4dPN
# Description: Bacteria were grown in Luria‐Bertani (LB; Tryptone 10 g L^− 1, Yeast extract 5 g L^− 1, NaCl 10 g L^− 1) or M9 minimal medium (Cold Spring Harbor Protocols, Cold Spring Harbor, NY) at 37°C, unless otherwise specified. Growth media were solidified with agar (16 g L^− 1; Fisher Scientific) for the preparation of plates. 4dPN toxicity assays were performed on thin (20 ml) M9 minimal medium plates containing 0.4% glucose (carbon source), ampicillin (100 μg ml^−1), 1 μM PN, and 0.02% or 0.2% arabinose when appropriate.
# Wild‐type yggS was amplified by PCR with primers DH596 and DH598 from E. coli BW25113 and cloned in pBAD24 using restriction sites SphI and NcoI to give pBY291.3. The pBY291.3 plasmid and its derivatives were then used as templates with the NEB Q5 Site‐Directed Mutagenesis Kit and the primer pairs indicated in Table S4 to introduce site‐directed residue mutant constructs. All constructs were verified by sequencing and transformed into E. coli wild‐type (BW25113) and ΔyggS (VDC6594) electrocompetent cells for use in physiological studies. Plasmid transformations were performed following standard procedures and protein expression from each construct was confirmed by SDS‐PAGE and western blot analysis.
# Three isolated colonies of each strain were inoculated into 5 ml LB Amp 200 μg ml^− 1 and incubated at 37°C and 200 rpm overnight. Overnight cultures were diluted 1:500 into 5 ml fresh LB Amp 200 μg ml^− 1 ± 0.02% or 0.2% arabinose and grown at 37°C, shaking. Once cultures reached midlog growth (OD600 of 0.4–0.7) samples were taken from each culture for western blot analysis (below) then cells were again incubated until stationary growth was reached (~6 hr). Cells were harvested by centrifugation then washed twice with and resuspended in 1x PBS. Optical density of washed cells was measured at 600 nm in 1 ml cuvettes (Fisher Scientific) using a BioSpec‐mini DNA/RNA/Protein analyzer (Shimadzu Biotech) and each strain was normalized to an OD600 of 0.006 in 3 ml 1x PBS. […]
# apo‐eSHMT = apo‐eSHMT (Escherichia coli, UniProt P0A825); settings: transfer to apo-SHMT
# Description: as §2
# WT Holo‐YggS (20 μM with respect to PLP) was mixed with 20 μM apo‐eSHMT in 50 mM NaHEPES buffer at pH 7.6.
# [6] = Differential scanning fluorimetry (DSF), apparent Tm of YggS forms; assay type: physicochemical
# Description: Differential scanning fluorimetry (DSF) assays were performed on a Real Time PCR Instrument (CFX Connect Real Time PCR system, Bio‐Rad, Hercules, CA). In a typical experiment, 2 μM WT and variant apo‐YggS forms in 50 mM NaHEPES, pH 7.5, 50 mM NaCl, and Sypro Orange (5x, Thermo Scientific) were mixed with various ligands (total volume of 25 μl) in a 96‐well PCR plate. Fluorescence was measured from 25°C to 95°C in 0.4°C/30 s steps (excitation 450–490 nm; detection 560–580 nm). All samples were run in triplicate. Denaturation profiles were analyzed as described in Nardella et al.[40]
# [7] = Covalent (Schiff base) PLP binding judged by absorption spectra; settings: ~416–420 nm band
# Description: Our strategy was to start from the K36A variant and gradually add further variations so as to obtain all possible combinations of double, triple, and quadruple variants. Variations of the last two residues at the C‐terminal end of the protein, K233 and K234, were always introduced together and are therefore considered as a single K233A/K234A variation.
# All spectroscopic measurements were carried out at 20°C in 20 mM NaHEPES pH 7.5. UV–visible spectra were recorded with a Hewlett‐Packard 8453 diode‐array spectrophotometer. Far‐UV (190–250 nm) and Near‐UV–visible (250–500 nm) CD spectra were measured with a Jasco 710 spectropolarimeter equipped with a DP 520 processor using 0.1‐cm (far‐UV) or 1‐cm path length quartz cuvettes and results were expressed as ellipticity [Θ]. Absorption spectra of WT and variant forms were deconvoluted into their component bands using Metzler's band‐shape analysis method.[22]
molecule,measurement,setting,value
"Cc1ncc(CO)c(C=O)c1O [PL, pyridoxal]",Kd,apo‐YggS [1],57000 ± 20000 nM
same,binding to apo-YggS by DSF,apo‐YggS [2]; B6 vitamers and analogs,only PL and PNP bind
"Cc1ncc(COP(=O)(O)O)c(C=O)c1O [PLP, pyridoxal 5′‐phosphate]",Kd,apo‐YggS [1],1.3 nM and ~1 nM
same,stoichiometry ratio of PLP binding,apo‐YggS [1]; titration with 1 μM apo-YggS,one
same,Kd,apo‐YggS [2],~50000 nM
same,time to reach PLP binding equilibrium,apo‐YggS [3],≤ 3 s
same,Kd,eSHMT,~5 nM
"Escherichia coli pyridoxal 5'-phosphate homeostasis protein (YggS), wild type, holo-form (natural protein, E. coli, UniProt P67080 1-234, looked up, PLP covalently bound to Lys36 through a Schiff base linkage, YggS (PLP homeostasis protein, PLPHP) of E. coli; K233 and K234 are the last two residues; Two wild-type constructs were made in pET28b(+): His-tag at the C-terminal end (NcoI/XhoI, pET28yggS) and His-tag at the N-terminal end (NdeI/EcoRI); Samples from the standard purification held about 70-80% PLP per monomer; also called holo-YggS; YggS-PLP; source: E. coli HMS174(DE3), purified (ammonium …)) MNDIAHNLAQVRDKISAAATRCGRSPEEITLLAVSKTKPASAIAEAIDAGQRQFGENYVQEGVDKIRHFQELGVTGLEWHFIGPLQSNKSRLVAEHFDWCHTIDRLRIATRLNDQRPAELPPLNVLIQINISDENSKSGIQLAELDELAAAVAELPRLRLRGLMAIPAPESEYVRQFEVARQMAVAFAGLKTRYPHIDTLSLGMSDDMEAAIAAGSTMVRIGTAIFGARDYSKK",Kd,[4],4800 ± 800 nM
"K137A: E. coli YggS single lysine variant K137A (protein, left off: His-tag, C-terminal, state not stated) MNDIAHNLAQVRDKISAAATRCGRSPEEITLLAVSKTKPASAIAEAIDAGQRQFGENYVQEGVDKIRHFQELGVTGLEWHFIGPLQSNKSRLVAEHFDWCHTIDRLRIATRLNDQRPAELPPLNVLIQINISDENSASGIQLAELDELAAAVAELPRLRLRGLMAIPAPESEYVRQFEVARQMAVAFAGLKTRYPHIDTLSLGMSDDMEAAIAAGSTMVRIGTAIFGARDYSKK",Kd,[5],1.8 ± 1.9 nM
same,complementation of the 4dPN sensitivity phenotype of ΔyggS,E. coli ΔyggS,failed to complement
same,PLP transfer kinetics compared with WT YggS,apo‐eSHMT,same transfer kinetics as that observed with WT YggS
same,T m (°C) Apo +2 μM PLP,[6]; 2 μM protein + 2 μM (equimolar) PLP,71.5 ± 0.1 °C
same,T m (°C) Apo + 300 μM PLP,[6]; 2 μM protein + 300 μM PLP,82.5 ± 0.1 °C
same,T m (°C) Apo,"[6]; apo-form, 2 μM protein, no PLP",60.3 ± 0.1 °C
same,capability to bind PLP covalently as a Schiff base,[7],able to bind PLP as a Schiff base
